Results published in patent publication US20250320281A1.

B1: PGT-126 (5141_B17) (antibody, V domains shown)
VH: QPQLQESGPGLVEASETLSLTCTVSGDSTAACDYFWGWVRQPPGKGLEWIGGLSHCAGYYNTGWTYHNPSLKSRLTISLDTPKNQVFLKLNSVTAADTAIYYCARFDGEVLVYHDWPKPAWVDLWGRGTLVTVSS
VL: QSALTQPPSASGSPGQSISISCTGTSNRFVSWYQQHPGKAPKLVIYGVNKRPSGVPDRFSGSKSGNTASLTVSGLQTDDEAVYYCSSLVGNWDVIFGGGTKLTVL
B2: PGT-127 (5145_B14) (antibody, V domains shown)
VH: QPQLQESGPGLVEASETLSLTCTVSGDSTGRCNYFWGWVRQPPGKGLEWIGSLSHCRSYYNTDWTYHNPSLKSRLTISLDTPKNQVFLRLTSVTAADTATYYCARFGGEVLVYRDWPKPAWVDLWGRGTLVVTVS
VL: QSALTQPPSASGSPGQSITISCTGTSNNFVSWYQQYPGKAPKLVIYEVNKRPSGVPDRFSGSKSGSTASLTVSGLQADDEGVYYCSSLVGNWDVIFGGGTKLTVL
B3: PGT-125 (5123_A06) (antibody, V domains shown)
VH: QSQLQESGPRLVEASETLSLTCNVSGESTGACTYFWGWVRQAPGKGLEWIGSLSHCQSFWGSGWTFHNPSLKSRLTISLDTPKNQVFLKLTSLTAADTATYYCARFDGEVLVYNHWPKPAWVDLWGRGIPVTVSS
VL: QSALTQPPSASGSPGQSITISCNGTATNFVSWYQQFPDKAPKLIIFGVDKRPPGVPDRFSGSRSGTTASLTVSRLQTDDEAVYYCGSLVGNWDVIFGGGTTLTVL
B4: 5344_E16 (PGT-135) (antibody, V domains shown)
VH: QLQMQESGPGLVKPSETLSLSCTVSGDSIRGGEWGDKDYHWGWVRHSAGKGLEWIGSIHWRGTTHYKESLRRRVSMSIDTSRNWFSLRLASVTAADTAVYFCARHRHHDVFMLVPIAGWFDVWGPGVQVTVSS
VL: EIVMTQSPDTLSVSPGETVTLSCRASQNINKNLAWYQYKPGQSPRLVIFETYSKIAAFPARFVASGSGTEFTLTINNMQSEDVAVYYCQQYEEWPRTFGQGTKVDIK
B5: 5366_P21 (PGT-136) (antibody, V domains shown)
VH: QLQLQESGPGLVKPSETLSLTCTVSGGSMRGTDWGENDFHYGWIRQSSAKGLEWIGSIHWRGRTTHYKTSFRSRATLSIDTSNNRFSLTFSFVTAADTAVYYCARHKYHDIFRVVPVAGWFDPWGQGLLVTVSS
VL: EIVMTQSPPTLSVSPGETATLSCRASQNVKNNLAWYQLKPGQAPRLLIFDASSRAGGIPDRFSGSGYGTDFTLTVNSVQSEDFGDYFCQQYEEWPRTFGQGTKVDIK
B6: 4869_K15 (PGT-133) (antibody, V domains shown)
VH: QVHLQESGPGLVTPSETLSLTCTVSNGSVSGRFWSWIRQSPGRGLEWIGYFSDTDRSEYNPSLRSRLTLSVDRSKNQLSLRLKSVTAADSATYYCARAQQGKRIYGIVSFGEFFYYYYMDAWGKGTPVTVSS
VL: SLNPLSLAPGATAKIPCGERSRGSRAVQWYQQKPGQAPTLIIYNNQDRPAGVSERFSGNPDVAIGVTATLTISRVEVGDEADYYCHYWDSRSPISWIFGGGTQLTVL

Tests used:
Experiment in all cases: cell-based or functional assay
[1] = target: HIV-1 Env of isolate MGRM-AE-003 (pseudovirus) (HIV-1)
[2] = target: HIV-1 Env of isolate CMU02 (pseudovirus) (HIV-1)
[3] = target: HIV-1 Env of isolate MGRM-A-012 (pseudovirus) (HIV-1)
[4] = target: HIV-1 Env of isolate 92UG031 (pseudovirus) (HIV-1)
[5] = target: HIV-1 Env of isolate 92WR026 (pseudovirus) (HIV-1)
[6] = target: HIV-1 Env of isolate MGRM-A-001 (pseudovirus) (HIV-1)
[7] = target: HIV-1 Env of isolate 93WR029 (pseudovirus) (HIV-1)
[8] = target: HIV-1 Env of isolate 92UG037 (pseudovirus) (HIV-1)
[9] = target: HIV-1 Env of isolate VLGCA1 (pseudovirus) (HIV-1)
[10] = target: HIV-1 Env of isolate 94KE105 (pseudovirus) (HIV-1)
[11] = target: HIV-1 Env of isolate MGRM-A-013 (pseudovirus) (HIV-1)
[12] = target: HIV-1 Env of isolate MGRM-AE-001 (pseudovirus) (HIV-1)
[13] = target: HIV-1 Env of isolate MGRM-A-014 (pseudovirus) (HIV-1)
[14] = target: HIV-1 Env of isolate MGRM-A-002 (pseudovirus) (HIV-1)
[15] = target: HIV-1 Env of isolate 92WR021 (pseudovirus) (HIV-1)
[16] = target: HIV-1 Env of isolate 92WR009 (pseudovirus) (HIV-1)
[17] = target: HIV-1 Env of isolate 92RW008 (pseudovirus) (HIV-1)
[18] = target: HIV-1 Env of isolate MGRM-A-010 (pseudovirus) (HIV-1)
[19] = target: HIV-1 Env of isolate MGRM-A-005 (pseudovirus) (HIV-1)
[20] = target: HIV-1 Env of isolate MGRM-A-006 (pseudovirus) (HIV-1)
[21] = target: HIV-1 Env of isolate 92WR024 (pseudovirus) (HIV-1)
[22] = target: HIV-1 Env of isolate MGRM-A-003 (pseudovirus) (HIV-1)
[23] = target: HIV-1 Env of isolate MGRM-A-009 (pseudovirus) (HIV-1)
[24] = target: HIV-1 Env of isolate 93UG077 (pseudovirus) (HIV-1)
[25] = target: HIV-1 Env of isolate MGRM-A-008 (pseudovirus) (HIV-1)
[26] = target: HIV-1 Env of isolate MGRM-A-007 (pseudovirus) (HIV-1)
[27] = target: HIV-1 Env of isolate MGRM-A-011 (pseudovirus) (HIV-1)
[28] = target: HIV-1 Env of isolate MGRM-A-004 (pseudovirus) (HIV-1)
[29] = target: HIV-1 Env of isolate 92TH021 (pseudovirus) (HIV-1)
[30] = target: HIV-1 Env of isolate MGRM-AE-002 (pseudovirus) (HIV-1)
[31] = target: HIV-1 Env of isolate 92WR020 (pseudovirus) (HIV-1)
[32] = target: HIV-1 Env of isolate 94UG103 (pseudovirus) (HIV-1)
[33] = target: HIV-1 Env of isolate MGRM-C-026 (pseudovirus) (HIV-1)
[34] = target: HIV-1 Env of isolate 93IN905 (pseudovirus) (HIV-1)
[35] = target: HIV-1 Env of isolate JR-CSF (pseudovirus) (HIV-1) (UniProt P20871)
[36] = target: HIV-1 Env of isolate 92BR020 (pseudovirus) (HIV-1)

| Binder | IC50 (µg/mL), pseudovirus neutralization [1] | IC50 (µg/mL), pseudovirus neutralization [2] | IC50 (µg/mL), pseudovirus neutralization [3] | IC50 (µg/mL), pseudovirus neutralization [4] | IC50 (µg/mL), pseudovirus neutralization [5] | IC50 (µg/mL), pseudovirus neutralization [6] | IC50 (µg/mL), pseudovirus neutralization [7] | IC50 (µg/mL), pseudovirus neutralization [8] | IC50 (µg/mL), pseudovirus neutralization [9] | IC50 (µg/mL), pseudovirus neutralization [10] | IC50 (µg/mL), pseudovirus neutralization [11] | IC50 (µg/mL), pseudovirus neutralization [12] | IC50 (µg/mL), pseudovirus neutralization [13] | IC50 (µg/mL), pseudovirus neutralization [14] | IC50 (µg/mL), pseudovirus neutralization [15] | IC50 (µg/mL), pseudovirus neutralization [16] | IC50 (µg/mL), pseudovirus neutralization [17] | IC50 (µg/mL), pseudovirus neutralization [18] | IC50 (µg/mL), pseudovirus neutralization [19] | IC50 (µg/mL), pseudovirus neutralization [20] | also measured |
| --- | --- | --- | --- | --- | --- | --- | --- | --- | --- | --- | --- | --- | --- | --- | --- | --- | --- | --- | --- | --- | --- |
| B1 | > 50 µg/mL | > 50 µg/mL | 0.097 µg/mL | > 50 µg/mL | 0.008 µg/mL | > 50 µg/mL | > 50 µg/mL | 0.011 µg/mL | > 50 µg/mL | 0.006 µg/mL | 0.006 µg/mL | 9.68 µg/mL | 0.01 µg/mL | 0.015 µg/mL | 0.006 µg/mL | > 50 µg/mL | 0.008 µg/mL | 0.002 µg/mL | > 50 µg/mL | > 50 µg/mL | IC50 (µg/mL), pseudovirus neutralization [21]: 42 µg/mL; IC50 (µg/mL), pseudovirus neutralization [22]: > 50 µg/mL; IC50 (µg/mL), pseudovirus neutralization [23]: 0.004 µg/mL; IC50 (µg/mL), pseudovirus neutralization [24]: 0.02 µg/mL; IC50 (µg/mL), pseudovirus neutralization [25]: > 50 µg/mL; IC50 (µg/mL), pseudovirus neutralization [26]: > 50 µg/mL; IC50 (µg/mL), pseudovirus neutralization [27]: > 50 µg/mL; IC50 (µg/mL), pseudovirus neutralization [28]: > 50 µg/mL; IC50 (µg/mL), pseudovirus neutralization [29]: 0.197 µg/mL; IC50 (µg/mL), pseudovirus neutralization [30]: > 50 µg/mL; IC50 (µg/mL), pseudovirus neutralization [31]: 0.006 µg/mL; IC50 (µg/mL), pseudovirus neutralization [32]: 0.008 µg/mL |
| B2 | > 50 µg/mL | > 50 µg/mL | 0.105 µg/mL | > 50 µg/mL | 0.024 µg/mL | > 50 µg/mL | > 50 µg/mL | 0.014 µg/mL | > 50 µg/mL | 0.023 µg/mL | 0.029 µg/mL | > 50 µg/mL | 0.24 µg/mL | 9.42 µg/mL | 0.011 µg/mL | > 50 µg/mL | 0.012 µg/mL | 0.017 µg/mL | > 50 µg/mL | > 50 µg/mL | IC50 (µg/mL), pseudovirus neutralization [21]: > 50 µg/mL; IC50 (µg/mL), pseudovirus neutralization [22]: > 50 µg/mL; IC50 (µg/mL), pseudovirus neutralization [23]: 0.013 µg/mL; IC50 (µg/mL), pseudovirus neutralization [24]: 0.055 µg/mL; IC50 (µg/mL), pseudovirus neutralization [25]: > 50 µg/mL; IC50 (µg/mL), pseudovirus neutralization [26]: > 50 µg/mL; IC50 (µg/mL), pseudovirus neutralization [27]: > 50 µg/mL; IC50 (µg/mL), pseudovirus neutralization [28]: > 50 µg/mL; IC50 (µg/mL), pseudovirus neutralization [29]: > 50 µg/mL; IC50 (µg/mL), pseudovirus neutralization [30]: > 50 µg/mL; IC50 (µg/mL), pseudovirus neutralization [31]: 0.01 µg/mL; IC50 (µg/mL), pseudovirus neutralization [32]: 0.017 µg/mL |
| B3 | 0.092 µg/mL | > 50 µg/mL | 0.177 µg/mL | > 50 µg/mL | 0.007 µg/mL | 12.4 µg/mL | > 50 µg/mL | 0.005 µg/mL | 0.078 µg/mL | 0.004 µg/mL | 0.014 µg/mL | 2.95 µg/mL | 13.9 µg/mL | 0.013 µg/mL | 0.005 µg/mL | 0.144 µg/mL | 0.004 µg/mL | 0.004 µg/mL | > 50 µg/mL | > 50 µg/mL | IC50 (µg/mL), pseudovirus neutralization [21]: 35.5 µg/mL; IC50 (µg/mL), pseudovirus neutralization [22]: > 50 µg/mL; IC50 (µg/mL), pseudovirus neutralization [23]: 0.009 µg/mL; IC50 (µg/mL), pseudovirus neutralization [24]: 0.012 µg/mL; IC50 (µg/mL), pseudovirus neutralization [25]: > 50 µg/mL; IC50 (µg/mL), pseudovirus neutralization [26]: > 50 µg/mL; IC50 (µg/mL), pseudovirus neutralization [27]: > 50 µg/mL; IC50 (µg/mL), pseudovirus neutralization [28]: > 50 µg/mL; IC50 (µg/mL), pseudovirus neutralization [29]: 0.006 µg/mL; IC50 (µg/mL), pseudovirus neutralization [30]: > 50 µg/mL; IC50 (µg/mL), pseudovirus neutralization [31]: 0.004 µg/mL; IC50 (µg/mL), pseudovirus neutralization [32]: 0.008 µg/mL |
| B4 |  |  |  |  |  |  |  |  |  |  |  |  |  |  |  |  |  |  |  |  | Primary Neutralization Index (B cell culture supernatant) [33]: 3.6; Primary Neutralization Index (B cell culture supernatant) [34]: 2.3; Primary Neutralization Index (B cell culture supernatant) [35]: 1.5 |
| B5 |  |  |  |  |  |  |  |  |  |  |  |  |  |  |  |  |  |  |  |  | Primary Neutralization Index (B cell culture supernatant) [33]: 6.2; Primary Neutralization Index (B cell culture supernatant) [34]: 5.5; Primary Neutralization Index (B cell culture supernatant) [35]: 1.1 |
| B6 |  |  |  |  |  |  |  |  |  |  |  |  |  |  |  |  |  |  |  |  | Primary Neutralization Index (B cell culture supernatant) [33]: 104; Primary Neutralization Index (B cell culture supernatant) [36]: 3.9; Primary Neutralization Index (B cell culture supernatant) [35]: 2.1; Primary Neutralization Index (B cell culture supernatant) [32]: 1.5 |
